# Assays:
# [1] = molecular target: T1, CD47/ECD (Gln 19 - Pro 139, His Tag, ACROBiosystems) (Homo sapiens, UniProt Q08722-3); assay: ELISA; CD47/ECD coated (0.2 ug per well, PBS pH 7.4, 16 h at 4°C), blocked with 2% BSA in PBST; IgG titrated at 11 two-fold dilutions in PBST with 0.5% BSA, 1 h; detected with HRP/anti-human IgG conjugate; EC50 by ED50 Plus v1.0; n = 3; settings: both partners purified
# T1 construct: also called CD47 antigen; CD47/ECD antigen; source: bought: ACROBiosystems (expressed from human 293 cells, HEK293)
# T1 sequence (Q08722 19-139): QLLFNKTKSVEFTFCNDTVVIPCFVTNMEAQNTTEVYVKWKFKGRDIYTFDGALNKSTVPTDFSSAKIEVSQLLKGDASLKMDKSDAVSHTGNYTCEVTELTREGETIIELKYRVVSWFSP
# [2] = molecular target: CD47 on the cell membrane of human lung cancer cell lines A549, SPC-A-1 and 95D (Homo sapiens, UniProt Q08722); assay: cell-based or functional assay
# Sequence of CD47 on the cell membrane of human lung cancer cell lines A549, SPC-A-1 and 95D (Q08722 19-323): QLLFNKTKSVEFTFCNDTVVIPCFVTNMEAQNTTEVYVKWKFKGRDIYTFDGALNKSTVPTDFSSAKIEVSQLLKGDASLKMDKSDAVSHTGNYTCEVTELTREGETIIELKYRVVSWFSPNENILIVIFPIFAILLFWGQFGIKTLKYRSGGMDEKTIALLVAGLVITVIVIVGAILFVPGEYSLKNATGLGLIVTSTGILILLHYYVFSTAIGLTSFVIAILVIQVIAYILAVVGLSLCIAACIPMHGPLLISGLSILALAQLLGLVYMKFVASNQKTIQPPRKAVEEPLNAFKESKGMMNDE
EC50 [1],Binder,"IC50 of cytotoxicity on 95D cells (relative cell viability, WST-1; 0.064-40 nM) [2]"
0.15 nM,"7DC2-VCMMAE (7DC2 conjugated with maleimidocaproyl-valine-citrulline-monomethyl auristatin E) (antibody, V domains shown, as the heavy chain of m1 (mouse Fab part); human IgG1 Fc fragment; as the light chain of m1; Antibody-drug conjugate of m1; drug distribution 2, 4, 6 and 8 per antibody; also called 7DC-VCMMAE; source: 7DC2 from Expi293, reduced with TCEP, conjugated with VCMMAE, purified (Amicon-30 kDa); copies: 2 + 2) VH: QVQLQQSGPELVKPGASVKMSCKASGYTFTNYFMHWVKQKPGQGLEWIGYINPYNDGTKYNEKFKGKATLTSDKSSSTAYMELSSLTSEDSAVYYCTKGGRYSMDYWGQGTTLTVSS VL: DVVMTQTPLSLPVRLGDEVSISCRSSQTIVFTNGNTYLEWYLQKPGQSPKLLIYKVSNRFSGVPDRFSGSGSGTDFTLTISRVEAEDLGIYYCFQGSHVPYTFGGGTKLELK",~40 nM
0.15 nM,"7DC2 monoclonal antibody (chimeric anti-human CD47, mouse Fab plus human IgG1 Fc) (antibody, V domains shown, human IgG1 Fc fragment; mouse light chain of 7DC2; Chimeric IgG1; also called 7DC2 mAb; 7CD2; source: Expi293, transfected with light and heavy chain plasmids, purified; copies: 2 + 2) VH: QVQLQQSGPELVKPGASVKMSCKASGYTFTNYFMHWVKQKPGQGLEWIGYINPYNDGTKYNEKFKGKATLTSDKSSSTAYMELSSLTSEDSAVYYCTKGGRYSMDYWGQGTTLTVSS VL: DVVMTQTPLSLPVRLGDEVSISCRSSQTIVFTNGNTYLEWYLQKPGQSPKLLIYKVSNRFSGVPDRFSGSGSGTDFTLTISRVEAEDLGIYYCFQGSHVPYTFGGGTKLELK",
0.13 nM,"7DC4-VCMMAE (7DC4 conjugated with maleimidocaproyl-valine-citrulline-monomethyl auristatin E) (antibody, V domains shown, as the heavy chain of m2 (mouse Fab part); human IgG1 Fc fragment; as the light chain of m2; Antibody-drug conjugate of m2; drug distribution 2, 4, 6 and 8 per antibody; also called 7DC4-CVMMAE; 7DC4-MMAE; source: 7DC4 from Expi293, reduced with TCEP, conjugated with VCMMAE, purified (Amicon-30 kDa); copies: 2 + 2) VH: QVQLKQSGAELVQPGASVKLSCKASGYTFTNYYMYWLRQRPGQGLEWIGEINPSNGGTDFNEKFKSKATLTVDKSSSTAFMQLSSLTSDDSAVYYCARGGFTMDYWGQGTTVTVSS VL: DVVMTQTPLSLPVSLGDQASISCRSSQSLVHSNGNTYLHWYLQKPGQSPKLLIYKVSNRFSGVPDRFSGSGSGTDFTLKISRVEAEDLGVYFCSQSTHVPLTFGAGTKLELK",~40 nM
0.13 nM,"7DC4 monoclonal antibody (chimeric anti-human CD47, mouse Fab plus human IgG1 Fc) (antibody, V domains shown, human IgG1 Fc fragment; mouse light chain of 7DC4; Chimeric IgG1; also called 7DC4 mAb; 7CD4; source: Expi293, transfected with light and heavy chain plasmids, purified; copies: 2 + 2) VH: QVQLKQSGAELVQPGASVKLSCKASGYTFTNYYMYWLRQRPGQGLEWIGEINPSNGGTDFNEKFKSKATLTVDKSSSTAFMQLSSLTSDDSAVYYCARGGFTMDYWGQGTTVTVSS VL: DVVMTQTPLSLPVSLGDQASISCRSSQSLVHSNGNTYLHWYLQKPGQSPKLLIYKVSNRFSGVPDRFSGSGSGTDFTLKISRVEAEDLGVYFCSQSTHVPLTFGAGTKLELK",

# Reference: PMC9133542, “Development of Novel CD47-Specific ADCs Possessing High Potency Against Non-Small Cell Lung Cancer in vitro and in vivo” (Frontiers in Oncology, 2022)
